B1: p.Arg131Ser (protein, UniProt P48546 22-466, looked up, variant R131S)
Gastric inhibitory …: RAETGSKGQTAGELYQRWERYRRECQETLAAAEPPSGLACNGSFDMYVCWDYAAPNATARASCPWYLPWHHHVAAGFVLRQCGSDGQWGLWRDHTQCENPEKNEAFLDQSLILERLQVMYTVGYSLSLATLLLALLILSLFRRLHCTRNYIHINLFTSFMLRAAAILSRDRLLPRPGPYLGDQALALWNQALAACRTAQIVTQYCVGANYTWLLVEGVYLHSLLVLVGGSEEGHFRYYLLLGWGAPALFVIPWVIVRYLYENTQCWERNEVKAIWWIIRTPILMTILINFLIFIRILGILLSKLRTRQMRCRDYRLRLARSTLTLVPLLGVHEVVFAPVTEEQARGALRFAKLGFEIFLSSFQGFLVSVLYCFINKEVQSEIRRGWHHCRLRRSLGEEQRQLPERAFRALPSGSGPGEVPTSRGLSSGTLPGPGNEASRELESYC
B2: p.Leu262His (protein, UniProt P48546 22-466, looked up, variant L262H)
Gastric inhibitory …: B1 Gastric inhibitory … with S110R, L241H
B3: p.Gly438Ser (protein, UniProt P48546 22-466, looked up, variant G438S)
Gastric inhibitory …: B1 Gastric inhibitory … with S110R, G417S
B4: p.Ser64Ala (protein, UniProt P48546 22-466, looked up, variant S64A)
Gastric inhibitory …: B1 Gastric inhibitory … with S43A, S110R
B5: p.Arg341Pro (protein, UniProt P48546 22-466, looked up, variant R341P)
Gastric inhibitory …: B1 Gastric inhibitory … with S110R, R320P
B6: p.Glu252Asp (protein, UniProt P48546 22-466, looked up, variant E252D)
Gastric inhibitory …: B1 Gastric inhibitory … with S110R, E231D
B7: p.Arg217Leu (protein, UniProt P48546 22-466, looked up, variant R217L)
Gastric inhibitory …: B1 Gastric inhibitory … with S110R, R196L
B8: p.Arg404His (protein, UniProt P48546 22-466, looked up, variant R404H)
Gastric inhibitory …: B1 Gastric inhibitory … with S110R, R383H
B9: p.Ser447Thr (protein, UniProt P48546 22-466, looked up, variant S447T)
Gastric inhibitory …: B1 Gastric inhibitory … with S110R, S426T
B10: p.Glu354Gln (protein, UniProt P48546 22-466, looked up, variant E354Q)
Gastric inhibitory …: B1 Gastric inhibitory … with S110R, E333Q
B11: p.Arg190Gln (protein, UniProt P48546 22-466, looked up, variant R190Q)
Gastric inhibitory …: B1 Gastric inhibitory … with S110R, R169Q
B12: p.Ile403Val (protein, UniProt P48546 22-466, looked up, variant I403V)
Gastric inhibitory …: B1 Gastric inhibitory … with S110R, I382V
B13: p.Leu100Phe (protein, UniProt P48546 22-466, looked up, variant L100F)
Gastric inhibitory …: B1 Gastric inhibitory … with L79F, S110R
B14: p.Arg336Pro (protein, UniProt P48546 22-466, looked up, variant R336P)
Gastric inhibitory …: B1 Gastric inhibitory … with S110R, R315P
B15: p.Glu463Gln (protein, UniProt P48546 22-466, looked up, variant E463Q)
Gastric inhibitory …: B1 Gastric inhibitory … with S110R, E442Q
B16: p.Arg183Gln (protein, UniProt P48546 22-466, looked up, variant R183Q)
Gastric inhibitory …: B1 Gastric inhibitory … with S110R, R162Q
B17: p.Ser415Ile (protein, UniProt P48546 22-466, looked up, variant S415I)
Gastric inhibitory …: B1 Gastric inhibitory … with S110R, S394I
B18: p.Ala268Val (protein, UniProt P48546 22-466, looked up, variant A268V)
Gastric inhibitory …: B1 Gastric inhibitory … with S110R, A247V
B19: p.Leu262Val (protein, UniProt P48546 22-466, looked up, variant L262V)
Gastric inhibitory …: B1 Gastric inhibitory … with S110R, L241V
B20: p.Arg136Trp (protein, UniProt P48546 22-466, looked up, variant R136W)
Gastric inhibitory …: B1 Gastric inhibitory … with S110R, R115W
B21: p.Glu288Gly (protein, UniProt P48546 22-466, looked up, variant E288G)
Gastric inhibitory …: B1 Gastric inhibitory … with S110R, E267G
B22: p.Asp66Gly (protein, UniProt P48546 22-466, looked up, variant D66G)
Gastric inhibitory …: B1 Gastric inhibitory … with D45G, S110R
B23: p.Ile378Met (protein, UniProt P48546 22-466, looked up, variant I378M)
Gastric inhibitory …: B1 Gastric inhibitory … with S110R, I357M
B24: p.Arg300Trp (protein, UniProt P48546 22-466, looked up, variant R300W)
Gastric inhibitory …: B1 Gastric inhibitory … with S110R, R279W
B25: p.Ala207Val (protein, UniProt P48546 22-466, looked up, variant A207V)
Gastric inhibitory …: B1 Gastric inhibitory … with S110R, A186V
B26: p.Arg101His (protein, UniProt P48546 22-466, looked up, variant R101H)
Gastric inhibitory …: B1 Gastric inhibitory … with R80H, S110R
B27: p.Thr116Arg (protein, UniProt P48546 22-466, looked up, variant T116R)
Gastric inhibitory …: B1 Gastric inhibitory … with T95R, S110R

Numbering of substitutions follows the chain as printed.

The test system of the first data set is wild-type and variant SNAP-GIPR. Kind of data set: Surface SNAP-GIPR expression (SNAP-tag labelling) in AD293 cells. It is filed as cell-based, human. To be noted: level of surface expression, based on in vitro functional data in AD293 cells; summary classification. The procedure:
Twenty-four hours before the experiment, AD293 or INS-1 cells were reverse transfected with GIPR variant or wild-type plasmids using Lipofectamine 2000 in 96-well, clear-bottom, black microplates precoated with poly-D-lysine. All variants were tested in parallel on each occasion to control for transfection efficiency differences between experiments. Cells were then labeled using the cell-impermeant probe SNAP-Surface Alexa Fluor 647 (500 nM, New England Biolabs, USA) for 10 min at room temperature to label only surface GIPR. […] Several fields of view (FOVs) were acquired within each well using a 20X, 0.75–numerical aperture (NA) air objective. Surface GIPR fluorescence was quantified after flat-field correction using BaSiC ([72]) and segmenting using Phantast ([73]), which generates a mask based on the phase contrast images to demarcate cell versus noncell. Wide-field imaging of the surface-specific labeling achieved by SNAP-Surface probes means that surface expression can be established from whole-cell fluorescence, after subtracting nonspecific fluorescence from a separate well containing nontransfected cells processed in parallel from the same experiment. Data were normalized by dividing by the average specific signal across each experiment, or by the wild-type value, as indicated in the figure legends.
B1: the “Surface expression” value is on record as “neutral”.

B2: the “Surface expression” value is listed as “decrease”.

Regarding B3, the “Surface expression” value is on record as “neutral”.

In the case of B4, the “Surface expression” value is listed as “decrease”.

Regarding B5, the “Surface expression” value is reported as “decrease”.

B6: the “Surface expression” value was “neutral”.

With B7, the “Surface expression” value is “decrease”.

As for B8, the “Surface expression” value is “decrease”.

With B9, the “Surface expression” value is given as “neutral”.

Consider B10, for which the “Surface expression” value is on record as “decrease”.

Regarding B11, the “Surface expression” value is on record as “decrease”.

B12: the “Surface expression” value is given as “neutral”.

Turning to B13, the “Surface expression” value is listed as “neutral”.

B14: the “Surface expression” value was “neutral”.

Take B15: the “Surface expression” value is reported as “neutral”.

For the molecule B16, the “Surface expression” value is “decrease”.

On to B17, for which the “Surface expression” value is given as “neutral”.

B18: the “Surface expression” value is “neutral”.

For B19, the “Surface expression” value is recorded as “neutral”.

In the case of B20, the “Surface expression” value is given as “neutral”.

As to B21, the “Surface expression” value is reported as “decrease”.

Consider B22, for which the “Surface expression” value is recorded as “decrease”.

Consider B23, for which the “Surface expression” value was “increase”.

With B24, the “Surface expression” value is on record as “decrease”.

B25: the “Surface expression” value is recorded as “neutral”.

For the molecule B26, the “Surface expression” value is reported as “decrease”.

For the molecule B27, the “Surface expression” value was “neutral”.

A further data set shares this test system. In words: Single-concentration GIP cAMP response by HTRF in AD293 cells. It is filed as cell-based, human. To be noted: cAMP responses to 100 pM GIP in AD293 cells; summary classification (decrease/neutral/increase). The procedure: All variants were tested in parallel on each occasion to control for transfection efficiency differences between experiments.
(In general: Time-resolved FRET reads energy transfer from a long-lived donor to a nearby acceptor.)
As to B1, the cAMP response entry is given as “decrease”.

With B2, the cAMP response result is on record as “decrease”.

Turning to B3, the cAMP response entry is reported as “neutral”.

B4: the cAMP response entry is recorded as “decrease”.

For B5, the cAMP response entry is “decrease”.

In the case of B6, the cAMP response result was “increase”.

With B7, the cAMP response result is “decrease”.

As to B8, the cAMP response entry is on record as “decrease”.

Regarding B9, the cAMP response result was “neutral”.

As to B10, the cAMP response result is “increase”.

In the case of B11, the cAMP response entry was “decrease”.

Regarding B12, the cAMP response entry is reported as “neutral”.

Regarding B13, the cAMP response entry was “neutral”.

With B14, the cAMP response entry is “neutral”.

On to B15, for which the cAMP response result is reported as “neutral”.

For the molecule B16, the cAMP response result is given as “decrease”.

Turning to B17, the cAMP response entry is listed as “neutral”.

On to B18, for which the cAMP response entry is “increase”.

On to B19, for which the cAMP response result is listed as “neutral”.

As to B20, the cAMP response result was “decrease”.

As to B21, the cAMP response entry is reported as “decrease”.

Consider B22, for which the cAMP response result was “decrease”.

For B23, the cAMP response entry is reported as “neutral”.

B24: the cAMP response result is “decrease”.

As for B25, the cAMP response entry is on record as “neutral”.

On to B26, for which the cAMP response entry was “decrease”.

Regarding B27, the cAMP response entry was “decrease”.

For the origin of these results see paper PMC13544220, “Glycemic and bodyweight effects of GIPR coding variation reflect differences in surface expression and intrinsic functional impairment” (Science Advances, 2026).
